B1: recombinant mature human BMP-2 (ligand)
chain: QAKHKQRKRLKSSCKRHPLYVDFSDVGWNDWIVAPPGYHAFYCHGECPFPLADHLNSTNHAIVQTLVNSVNSKIPKACCVPTELSAISMLYLDENEKVVLKNYQDMVVEGCGCR
B2: unmodified mature human MP52 (ligand)
chain: PLATRQGKRPSKNLKARCSRKALHVNFKDMGWDDWIIAPLEYEAFHCEGLCEFPLRSHLEPTNHAVIQTLMNSMDPESTPPTCCVPTRLSPISILFIDSANNVVYKQYEDMVVESCGCR

Target: BMP receptors

Binder	ALPase activity in C3H10T 1/2 cells (times higher than the control group)	ALPase activity in MC3T3-E1 cells (times higher than the control group)
B1	40	
B2		3
